Reference: patent publication US20030003461
pKd: −log10 of the molar value.

Target: TGFβ1 (Homo sapiens) (UniProt P01137)
Experiment: filter
Conditions: 2'-F pyrimidines, 3' fixed sequence removed

Sequence of TGFβ1 (Homo sapiens) (P01137 279-390): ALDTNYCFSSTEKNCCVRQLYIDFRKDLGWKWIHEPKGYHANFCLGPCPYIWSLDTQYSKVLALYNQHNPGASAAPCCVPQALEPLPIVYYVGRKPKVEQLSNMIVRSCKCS

“GGGAGAGGGGUCUGGAAUUUUUGGNUUACCCGUACGCCAGACGACUCGCCCGA [30NtruNc 9]” gave a pKd (plateau 20%) of 10.00.
“GGGAGANCUGGUAAUUUUGGUUUANCCGUAUNCCCAGACGACUCGCCCGA [30NtruNc 32]” showed a pKd (plateau 15%) of 7.66.
“GGGAGCGGAAUUUUUGUGUAGACGUAUGCCGCUUUGNCCAGACGACUCGCCCGA [30NtruNc 37]” gave a pKd (plateau 15%) of 10.08.
With “GGGAGGGUUAACCGUUAAGACGGCGUNAUUUUGUCCCCAGACGACUCGCCCGA [30NtruNc 7]” the pKd (plateau 25%) was 8.70.
